Assay results published in patent US20120172578A1 (VLAAMS INTERUNIVERSITAIR INSTITUUT VOOR BIOTECHNOLOGIE, published 2012).

What was measured:
β-lactamase = assay: BIAcore
[1] = biological target: humanized mouse mAb to CD40; assay: BIAcore
human serum albumin = biological target: T1, human serum albumin (human, UniProt P02768 25-609); assay: column 'Antigen recognized by antibody'
T1 construct: also called HSA

TEM1 [2] = biological target: T2, TEM1 (UniProt P62593 24-286); assay: column 'Antigen recognized by antibody'
T2 construct: also called β-lactamase; b-lactamase
T2 sequence (P62593 24-286 limits assumed): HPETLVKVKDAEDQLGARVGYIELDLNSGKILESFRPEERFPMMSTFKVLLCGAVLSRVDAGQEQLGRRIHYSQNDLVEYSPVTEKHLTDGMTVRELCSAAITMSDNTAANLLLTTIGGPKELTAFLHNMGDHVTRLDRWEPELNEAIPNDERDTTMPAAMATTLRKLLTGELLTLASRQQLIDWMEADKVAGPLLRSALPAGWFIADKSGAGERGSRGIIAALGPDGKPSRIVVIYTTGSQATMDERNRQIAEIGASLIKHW

TEM1 [3] = biological target: T2, TEM1; assay: IMAC co-purification, Coomassie stained PAGE
[4] = biological target: T3, Prostate Specific Antigen (UniProt P07288 25-261); assay: column 'Antigen recognized by antibody'
T3 construct: also called PSA
T3 sequence (P07288 25-261 limits assumed): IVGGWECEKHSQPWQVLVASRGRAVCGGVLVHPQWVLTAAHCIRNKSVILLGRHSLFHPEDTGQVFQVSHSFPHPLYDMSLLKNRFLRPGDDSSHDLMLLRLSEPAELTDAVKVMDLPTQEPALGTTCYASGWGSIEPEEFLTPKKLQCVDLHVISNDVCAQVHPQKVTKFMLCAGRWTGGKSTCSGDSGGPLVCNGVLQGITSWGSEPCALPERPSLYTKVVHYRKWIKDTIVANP

[5] = biological target: T3, Prostate Specific Antigen; assay: BIAcore
[6] = biological target: T4, Carcino Embryonic Antigen (UniProt P06731 35-685, limits assumed); assay: ELISA on coated CEA
T4 construct: also called CEA; CEA tumor antigen
T4 sequence (looked up): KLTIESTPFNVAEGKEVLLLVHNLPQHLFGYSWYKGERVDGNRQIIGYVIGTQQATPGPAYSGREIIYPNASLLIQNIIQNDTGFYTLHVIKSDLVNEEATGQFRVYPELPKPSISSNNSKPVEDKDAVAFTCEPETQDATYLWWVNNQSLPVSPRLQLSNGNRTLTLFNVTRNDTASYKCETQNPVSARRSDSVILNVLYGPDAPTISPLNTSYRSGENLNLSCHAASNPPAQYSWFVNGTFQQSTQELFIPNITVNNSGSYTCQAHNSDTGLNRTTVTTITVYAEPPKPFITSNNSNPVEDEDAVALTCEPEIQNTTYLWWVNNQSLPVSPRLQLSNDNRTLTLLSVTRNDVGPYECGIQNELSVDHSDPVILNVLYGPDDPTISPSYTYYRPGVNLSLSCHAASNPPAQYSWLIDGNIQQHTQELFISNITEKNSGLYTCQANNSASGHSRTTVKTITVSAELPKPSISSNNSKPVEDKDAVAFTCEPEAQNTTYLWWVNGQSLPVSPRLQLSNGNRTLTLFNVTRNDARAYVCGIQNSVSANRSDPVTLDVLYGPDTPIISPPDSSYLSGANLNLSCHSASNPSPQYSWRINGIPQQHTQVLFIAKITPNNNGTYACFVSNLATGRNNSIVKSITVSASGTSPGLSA
Protocol: A microtiter plate (Maxisorp, NUNC) was coated overnight at 4° C. with CEA (Scripps) at a concentration of 1 μg/ml (in PBS), and blocked for two hours at room temperature (RT) with 300 μl 1% casein in PBS. The plates were washed three times with PBS-tween. […] Plates were washed six times with PBS-tween, after which binding of VHH was detected by incubation with mouse anti-Histidine mAB (Serotec; 1:1000 diluted; 100 μl/well) for 1 hour at RT followed by anti-mouse-alkaline phosphatase conjugate (Sigma, 1:2000 diluted), also for 1 hour at RT. Staining was performed with the substrate PNPP (p-nitrophenyl-phosphate, 2 mg/ml in 1M diethanolamine, 1 mM Mg₂SO₄, pH9.8) and the signals were measured after 30 minutes at 405 nm.

[7] = biological target: T4, Carcino Embryonic Antigen; assay: column 'Antigen recognized by antibody'

T1 sequence (P02768 25-609 limits assumed): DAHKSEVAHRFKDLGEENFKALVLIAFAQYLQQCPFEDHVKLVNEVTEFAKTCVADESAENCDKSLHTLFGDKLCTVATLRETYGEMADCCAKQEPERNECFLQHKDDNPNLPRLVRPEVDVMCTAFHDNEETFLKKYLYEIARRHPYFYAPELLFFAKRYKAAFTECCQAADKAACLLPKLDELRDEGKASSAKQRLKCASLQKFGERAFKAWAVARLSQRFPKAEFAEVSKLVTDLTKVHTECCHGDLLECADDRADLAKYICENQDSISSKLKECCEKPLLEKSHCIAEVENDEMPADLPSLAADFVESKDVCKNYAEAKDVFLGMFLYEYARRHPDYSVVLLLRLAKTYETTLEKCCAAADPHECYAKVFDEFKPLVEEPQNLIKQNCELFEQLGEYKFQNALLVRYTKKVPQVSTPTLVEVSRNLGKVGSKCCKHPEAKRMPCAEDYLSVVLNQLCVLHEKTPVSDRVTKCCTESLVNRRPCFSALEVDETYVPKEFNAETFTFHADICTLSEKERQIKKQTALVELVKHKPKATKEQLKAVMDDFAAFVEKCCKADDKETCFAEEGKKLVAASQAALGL

B1: cAbBLA01 (VHH)
VHH: QLQLVESGGGSVQSGGSLRLSCKVSGYIGSTNCMGWFRQAPGKEREGVASLFTGSGNTYYGDSVKGRFTISEDNAKNTVSLQMNSLKPEDTAMYYCASSSNVGSDESCGRKNTRQFVYTYQGQGTQVTVSS
Kd (β-lactamase): < 1 nM

B2: CD40-1 (VHH)
VHH: QVQLVESGGGLVQPGGSLRLSCAASGFAFSRYSMYWVRQAPGKGLEWVSEIYPDGNGWYTSSVKGRFTISRDNDKNMLYLQMNSLKPDDTAVYYCALSRSGQGRGQGTRVTVSS
Kd [1]: 2 nM

B3: ALB-3 (VHH)
VHH: QVQLQESGGGLVQPGNSLRLSCAASGFAFGNFGMSWVRQAPGKEPEWVSSIDSIGSDTLYADFVKGRFTISRDNAKSTLYLQMNSLKPEDTAVYYCTIGGSLSRSSQGTQVTVSS
notes: Llama single domain; purified on Ni-NTA
binding result (human serum albumin): binds

B4: ALB-4 (VHH)
VHH: QVQLQESGGGLVQPGNSLRLSCAASGFSFRSFGMSWVRQAPGKGPEWVSSINSSGDDTRYTDSVKGRFTISRDNAKSTLYLQMNSLKPEDTAVYYCTIGSSISRSSQGTQVTVSS
notes: as for B3
binding result (human serum albumin): binds

B5: ALB-2 (VHH)
VHH: QVQLQESGGGLVQPGGSLRLTCTASGFAFSNFGMSWVRQPPGKGLEWVSAISADSSTKNYADSVKGRFTISRDNTKKMLYLEMNSLKPEDTAVYHCVIGRGSASSQGTQVTVSS
notes: as for B3
binding result (human serum albumin): binds

B6: ALB-5 (VHH)
VHH: QVQLQESGGGLVQPGGSLRLTCTASGFAFSSFGMSWVRQPPGKGLEWVSAISADSSTKNYADSVKGRFTISRDNDKKMLYLEMNKLKPEDTAVYHCVIGRGSPSSQGTQVTVSS
notes: as for B3
binding result (human serum albumin): binds

B7: anti-β-lactamase VHH TEM04 (wild type) (VHH)
VHH: QVQLVESGGGLVQAGGSLRLSCAASGFTFSSAWMTWVRQAPGKGLEWVTSIATDGSTDYADSVKGRFTISRDNAKNTLYLQLNSLNTEDTAVYYCAKDRWGYVVRGQGTQVTVSS
notes: also called cAbTEM04
binding result (TEM1 [2]): binds

B8: anti-β-lactamase VHH TEM04 R103W mutant (VHH)
VHH: QVQLVESGGGLVQAGGSLRLSCAASGFTFSSAWMTWVRQAPGKGLEWVTSIATDGSTDYADSVKGRFTISRDNAKNTLYLQLNSLNTEDTAVYYCAKDRWGYVVWGQGTQVTVSS
notes: also called VHH TEM04 mutant; TEM04 W (mutant)
binding result (TEM1 [3]): binds

B9: N3-A (VHH)
VHH: DVQLQESGGSLVQPGGSLRLSCAASGFTFSAYYMIWVRQAPGKGLEWVSGISANGRDTLYEDSVEGRFAISRDNAKNTLYLQMNSLRSEDTALYYCVIGALITGRRGQGTQVTVSS
notes: Dromedary single domain; purified on Ni-NTA
binding result [4]: binds

B10: C11-B (VHH)
VHH: DVQLQESGGGLVQPGGSLRLSCAASGFIFSNTYMTWVRQAPGKGLEWVSGISADGRDTLYADSVEGRFAISRDNAKNTLYLQMNSLRSEDTALYYCVTGALMTGRRGQGTQVTVSS
notes: as for B9
Kd [5]: 2.6 nM

B11: N8-B (VHH)
VHH: DVQLQESGGGLVQPGGSLRLSCAASGFLFSDTYMTWARQAPGKGLEWLGGISKDGSGTLYEDSVEGRFTISRDNAKNTLYLQMNSLKSEDTALYYCSTGALLPTRPQGQGTQVTVSS
notes: as for B9
Kd [5]: 1.6 nM

B12: C12-A (VHH)
VHH: DVQLQESGGGLVRPGGSLRLSCAASGFLFSGTYMTWARQAPGKGLEWLCGINKDGSGTLYADSVEGRFTCSRDNAKNTLYLQMNSLKSEDTALYYCSTGALLPTRPQGQGTQVTVSS
notes: as for B9
Kd [5]: 2.6 nM

B13: C9-B (VHH)
VHH: DVQLQESGGGLVQPGGSLRLSCAASGFTFSNHYMTWVRQAPGKGLEWVSVISNDGRYTDYADSVKGRFTISRDNAKNTLYLQMNSLKTEDTALYTCVRGYYLTNLPAGDRGQGTQVTVSS
notes: as for B9
Kd [5]: 3.9 nM

B14: C24-A (VHH)
VHH: DVQLQESGGGLVQPGGSLRLSCAASGFAFTPSYMSWVRQAPGKGLEWVSVISNDGRYTDYADSVKGRFTISRDNAKNTLYLQMNSLKTEDTALYTCVRGYYLTNLPAGDRGQGTQVTVSS
notes: as for B9
binding result [4]: binds

B15: anti-carcinoembryonic antigen VHH CEA71 (wild type) (VHH)
VHH: QVQLVESGGGLVQPGGSLRLSCAASGFTFSSSYMSWVRQAPGKGLEWVSGINTDGSFTRYADSVKGRFTISRDNAKNTLYLQMNSLKSEDTALYYCAVGGGLGYGPRGQGTLVTVSS
notes: also called CEA71 WT; CEA wild type VHH
fold lower concentration at which it binds, against the R103W mutant [6]: ~10 fold

B16: CEA72 (VHH)
VHH: QVQLVESGGGLVQPGGSLRLSCAASEFTFSSSYMSWVRQAPGKGLEWVSGINTDGSFTRYADSVKGRFTISRDNAKNTLYLQMNSLKSEDTALYYCAVGGGLGYGPRGQGTQVTVSS
notes: as for B9
binding result [7]: binds

B17: C1-B (VHH)
VHH: DVQLQESGGGLVQPGGSLRLSCAASGFTFSTSYMTWARQAPGKGLEWVSGINRDGNNPLYADSVEGRFTVSRDNAKNTLYLQMNSLKSEDTALYYCVAGALVAGARGQGTQVTVSS
notes: as for B9
Kd [5]: 0.8 nM

B18: N13-A (VHH)
VHH: DVQLQESGGGSVQPGGSLRLSCAASGFTFKDASMNWVRQAPGKGLEWVSAINGGGTVTDYADPMEGRFTISRDNAKNTLYLQMNSLNFEDTALYYCATGWLFRANNYRGQGTQVTVSS
notes: as for B9
binding result [4]: binds

B19: N15-B (VHH)
VHH: DVQLQESGGGSVQAGGSLRLACAATAYTYDSNVLGWFRQAPGKEHEGVAVIYTGTRTTYYADSVKGRFTISQDNAKNTVYLQMNSLKPGDTAMYFCAANVRLGGVWSFDYRGQGTQVTVSS
notes: as for B9
binding result [4]: binds

B20: CEA1 (VHH)
VHH: QVQLVESGGGLVQPGGSLRLSCAASGFTFSKYDMSWVRQAPGKGLEWVSRISSGGGSTYYADSVKGRFTISRDNAKNTLYLQMNSLKPEDTAVYYCATPTYSSDYRGLPPGQGTQVTVSS
notes: as for B9
binding result [7]: binds

B21: ALB-1 (VHH)
VHH: QVQLQESGGGLVQPGGSLRLSCAASGFAFSSFPMTWVRQAPGKGLEWVSGILEGGGSPAYADSVKGRFTISRDDAKNTLYLQMNSLKPEDTAVYYCAKGYVYAREGARSQGTQVTVSS
notes: as for B3
binding result (human serum albumin): binds
